Reference: patent WO1992011383A1

Target: recombinant human TNF-alpha (human) (UniProt P01375)
Assay: Scatchard analysis in solution: 125I-TNF and unlabelled TNF, antibody captured on anti-IgG agarose beads

Chain of UniProt P01375 (P01375 77-233 limits assumed): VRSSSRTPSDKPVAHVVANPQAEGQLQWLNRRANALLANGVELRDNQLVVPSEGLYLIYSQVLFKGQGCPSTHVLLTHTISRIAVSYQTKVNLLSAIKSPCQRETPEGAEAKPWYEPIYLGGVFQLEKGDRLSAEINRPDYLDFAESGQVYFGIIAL

Kd: 140 pM
Substance: CDP571 (CDR-grafted CB0010, gEU light chain / 2hEUg heavy chain) (antibody)
